Measured values from publication PMC11589570 (Nature Communications, 2024).
No end group written: not given here.

What was measured:
Conditions in all cases: both partners purified
LC3A_(1-120) = LC3A_(1-120) (human, UniProt Q9H492 1-120); assay: fluorescence polarisation; direct titration: 30 nM Cy5-labelled p62 LIR probe, purified LC3/GABARAPs titrated from 55 µM to 600 pM; 50 mM HEPES pH 7.5, 150 mM NaCl, 5 % glycerol, 1 mM TCEP, 0.05% TWEEN20; 1 h at room temperature; 384-well plate
LC3B_(1-120) = LC3B_(1-120) (human, UniProt Q9GZQ8 1-120); assay: fluorescence polarisation; tracer displacement: 30 nM Cy5-labelled p62 LIR probe with 4 µM LC3/GABARAPs, small-molecule compounds titrated from 20 µM to 20 nM; same assay buffer; 1 h at room temperature
LC3C_(1-126) = LC3C_(1-126) (human, UniProt Q9BXW4 1-126); assay: as above
GABARAP_(1-116) = GABARAP_(1-116) (human, UniProt O95166 1-116); assay: as above
GABARAPL1_(1-117) = GABARAPL1_(1-117) (human, UniProt Q9H0R8 1-117); assay: as above
GABARAPL2_(1-117) = GABARAPL2_(1-117) (human, UniProt P60520 1-117); assay: as above

Measured: binding result

B1: fluorescently labeled p62 LIR probe (SDNSSGGDDDWTHLSSK-Cy5) (peptide)
peptide: SDNSSGGDDDWTHLSSK-Cy5
notes: also called p62 LIR peptide linked to a Cy5 fluorophore; tracer
binds: all assays above
